Key:
SRp30a = SRp30a (UniProt Q6PDM2)
SRp30b = SRp30b (UniProt Q62093)
SRp55 = target: T1, SRp55 (UniProt Q3TWW8)
T1 sequence: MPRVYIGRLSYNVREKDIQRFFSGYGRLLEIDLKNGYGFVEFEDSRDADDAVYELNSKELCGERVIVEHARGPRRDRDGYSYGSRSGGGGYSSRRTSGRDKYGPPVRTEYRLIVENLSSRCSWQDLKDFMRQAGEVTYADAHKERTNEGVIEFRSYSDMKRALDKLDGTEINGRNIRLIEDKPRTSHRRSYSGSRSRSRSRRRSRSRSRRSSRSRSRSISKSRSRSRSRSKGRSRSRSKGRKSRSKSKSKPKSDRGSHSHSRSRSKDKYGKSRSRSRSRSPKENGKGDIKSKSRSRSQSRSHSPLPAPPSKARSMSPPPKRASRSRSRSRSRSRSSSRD

SRp40 = target: T2, SRp40 (UniProt O35326)
T2 sequence: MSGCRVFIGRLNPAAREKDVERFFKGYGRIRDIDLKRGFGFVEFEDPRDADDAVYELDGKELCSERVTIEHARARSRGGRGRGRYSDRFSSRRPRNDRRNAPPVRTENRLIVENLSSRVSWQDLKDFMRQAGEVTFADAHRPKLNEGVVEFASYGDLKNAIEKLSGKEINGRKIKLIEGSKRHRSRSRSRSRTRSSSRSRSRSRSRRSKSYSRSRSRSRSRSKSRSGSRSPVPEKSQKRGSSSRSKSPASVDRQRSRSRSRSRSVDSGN

SRp20 = target: T3, SRp20 (UniProt P84104)
T3 sequence: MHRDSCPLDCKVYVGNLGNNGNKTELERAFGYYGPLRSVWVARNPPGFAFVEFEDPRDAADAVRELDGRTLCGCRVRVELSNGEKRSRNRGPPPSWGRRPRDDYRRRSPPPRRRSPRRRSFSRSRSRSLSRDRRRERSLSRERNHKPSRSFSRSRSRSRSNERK

Chain of SRp30a (Q6PDM2 2-248): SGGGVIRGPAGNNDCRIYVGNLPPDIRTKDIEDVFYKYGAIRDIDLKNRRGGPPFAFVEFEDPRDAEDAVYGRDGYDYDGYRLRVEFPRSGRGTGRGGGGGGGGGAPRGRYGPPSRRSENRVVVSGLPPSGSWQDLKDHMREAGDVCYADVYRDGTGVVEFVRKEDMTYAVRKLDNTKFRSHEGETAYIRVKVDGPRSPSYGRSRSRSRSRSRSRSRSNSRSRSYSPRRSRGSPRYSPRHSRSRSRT
Chain of SRp30b (Q62093 2-221): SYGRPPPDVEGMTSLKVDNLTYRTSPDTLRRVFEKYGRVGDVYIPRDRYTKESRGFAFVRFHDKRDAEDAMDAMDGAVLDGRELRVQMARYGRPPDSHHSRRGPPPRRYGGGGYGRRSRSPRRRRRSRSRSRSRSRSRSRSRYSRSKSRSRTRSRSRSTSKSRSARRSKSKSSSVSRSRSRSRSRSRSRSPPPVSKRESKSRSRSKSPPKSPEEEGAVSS

Substance	phosphorylation of SR proteins, in vitro kinase assay with gamma-32P-ATP (SRp30a)	phosphorylation of SR proteins, in vitro kinase assay with gamma-32P-ATP (SRp30b)	phosphorylation of SR proteins, in vitro kinase assay with gamma-32P-ATP (SRp55)	phosphorylation of SR proteins, in vitro kinase assay with gamma-32P-ATP (SRp40)	phosphorylation of SR proteins, in vitro kinase assay with gamma-32P-ATP (SRp20)
GST-mCLK4 fusion protein	All mCLK kinases were able to phosphorylate SRp2O, SRp3Oa and to a lesser extent SRp4O and SRp55	mCLK1 and mCLK4 phosphorylated SRp3Oa (upper band) more strongly than SRp3Ob	All mCLK kinases were able to phosphorylate SRp2O, SRp3Oa and to a lesser extent SRp4O and SRp55	All mCLK kinases were able to phosphorylate SRp2O, SRp3Oa and to a lesser extent SRp4O and SRp55	All mCLK kinases were able to phosphorylate SRp2O, SRp3Oa and to a lesser extent SRp4O and SRp55
GST-mCLK3 fusion protein	All mCLK kinases were able to phosphorylate SRp2O, SRp3Oa and to a lesser extent SRp4O and SRp55	mCLK2 and mCLK3 phosphorylated both with almost equal efficiency	All mCLK kinases were able to phosphorylate SRp2O, SRp3Oa and to a lesser extent SRp4O and SRp55	All mCLK kinases were able to phosphorylate SRp2O, SRp3Oa and to a lesser extent SRp4O and SRp55	All mCLK kinases were able to phosphorylate SRp2O, SRp3Oa and to a lesser extent SRp4O and SRp55
GST-mCLK2 fusion protein	All mCLK kinases were able to phosphorylate SRp2O, SRp3Oa and to a lesser extent SRp4O and SRp55	mCLK2 and mCLK3 phosphorylated both with almost equal efficiency	All mCLK kinases were able to phosphorylate SRp2O, SRp3Oa and to a lesser extent SRp4O and SRp55	All mCLK kinases were able to phosphorylate SRp2O, SRp3Oa and to a lesser extent SRp4O and SRp55	All mCLK kinases were able to phosphorylate SRp2O, SRp3Oa and to a lesser extent SRp4O and SRp55

From patent US7074589
